# Measurements: patent publication US20160251703, “ALLERGEN DETECTION” (DOTS DEVICES, INC., published 2016)
# B1: MB9 (ssDNA)
# DNA: TCGCACATTCCGCTTCTACCGGGGGGGTCGAGCTGAGTGGATGCGAATCTGTGGGTGGGCCGTAAGTCCGTGTGTGCGAAAATGTGCGA
# B2: SPN-E (ssDNA)
# DNA: TGCAGCTAAGCAGGCGGCTCACAAAACCATTCGCATGCGGCGCTGC
# B3: MB4 (ssDNA)
# DNA: TGCAGCTAAGCAGGCGGCTCACAAAACCATTCGCATGCGGCTGCA
# B4: MB7 (ssDNA)
# DNA: TCGCACATTCCGCTTCTACCGGGGGGGTCGAGCTGAGTGGATGCGAATCTGTGGGTGGGCCGTAAGTCCGTGTGTGCGAATGTGCGA
# B5: SPN-E* (structured_DNA)
# DNA 1: TGCAGCTAAGCAGGCGGCTCACAAAACCATTCGCATGCGGC
# DNA 2: CTTAGCTGCA
# B6: MB6 (ssDNA)
# DNA: TGCAGCTAAGCAGGCGGCTCACAAAACCATTCGCATGCGGCGCTGCA
# Tests used:
# Ovomucoid = Ovomucoid (UniProt P01005 P01005:25-210); assay: ovomucoid spiked in mug cake; settings: label: 5'-fluorescein, 3'-Dabcyl; hairpin
# Lysozyme (egg white) [1] = biological target: T1, Lysozyme (egg white) (UniProt P00698 P00698:19-147); assay: fluorescence turn-on; detects lysozyme 0.6-1200 ng/mL; 12 uM SPN; PBS/Tris pH 7.5, 25 C; settings: tags: Pierce (Thermo Scientific); label: 5'-fluorescein, 3'-Dabcyl; hairpin
# Procedure: (§1) Protein samples are diluted to specified concentrations in PBS. The signaling polynucleotide solutions are prepared at 200 μM in 10 mM TRIS-HCl, pH 7.5, heated to 99° C. for 3 minutes and then cooled to room temperature for 20 minutes. Volumes of 60 μL of protein solutions are added to the wells of a 96-well plate. Signaling polynucleotides are added to the wells as soon as possible after the addition of the protein samples. Fluorescence readings are taken immediately with all readings obtained at 25° C. with an excitation wavelength of 495 nm and emission monitored at the fluorescence peak of 519 nm. The signaling polynucleotides were synthesized by TriLink Biotechnologies (San Diego, Calif.), pure lysozyme was obtained from Pierce (Thermoscientific) and BSA was obtained from Sigma Aldrich.
# An assay was performed to obtain a dose curve (12 μM of detection of signaling polynucleotide SPN-E per sample). The results are shown in FIG. 8 and indicate that SPN-E detects lysozyme concentrations ranging from 0.6 ng/mL to 1200 ng/mL, translating to less than 50 pg of lysozyme per sample.
# Bovine serum albumin = Bovine serum albumin (Bos taurus, UniProt P02769 P02769:25-607); assay: fluorescence turn-on; minimal signal with BSA negative control; settings: tags: Sigma Aldrich; label: 5'-fluorescein, 3'-DABCYL; hairpin
# Procedure: as §1
# (§2) The data plotted in FIG. 9A indicate that SPN-E* at a concentration of 100 μM detects lysozyme at a 5 ng/mL concentration and increases the detection level to 3 pg/sample. The data plotted in FIG. 9B indicate that SPN-E can be used to detect lysozyme in unprocessed egg white which was diluted 1:20 (sample size was 30 μL). SPN-E gave a minimal signal with BSA as the negative control protein.
# Lysozyme (egg white) [2] = biological target: T1, Lysozyme (egg white); assay: fluorescence turn-on; lysozyme spiked into chocolate cake; settings: tags: Pierce (Thermo Scientific); label: 5'-fluorescein, 3'-Dabcyl; hairpin
# Procedure: A set of binding assays were performed using lysozyme SPNs (MB4, MB5 and MB6). Experimental procedures: Food samples were homogenized as stated above—generally 2.5 ml buffer was added to 0.5 food sample. The samples were homogenized and centrifuged. 25 ul of the sample was added to a 96 flat bottom well plate. The specific SPN was resuspended to a 100 uM concentration and 25 ul of the SPN was added to the plate—final concentration 50 uM. The samples were immediately read with the GloMax Promega plate reader using the blue laser. (detection was quantified as the intensity of FITC minus the background—buffer alone and non-spiked samples).
# Lysozyme (egg white) [3] = biological target: T1, Lysozyme (egg white); assay: fluorescence turn-on; 100 uM SPN detects 5 ng/mL lysozyme; 25 C; not altered by milk or BSA (FIG. 10); settings: tags: Pierce (Thermo Scientific); partial duplex with annealed 10-nt quencher linker at 5' end
# Procedure: as §1, §2
# T1 sequence (P00698 19-147, one chain of several): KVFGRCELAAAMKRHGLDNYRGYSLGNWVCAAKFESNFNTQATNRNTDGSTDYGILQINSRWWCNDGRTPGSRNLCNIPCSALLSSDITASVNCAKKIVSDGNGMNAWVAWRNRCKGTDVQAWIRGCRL
# Chain of Ovomucoid (P01005 25-210, one chain of several): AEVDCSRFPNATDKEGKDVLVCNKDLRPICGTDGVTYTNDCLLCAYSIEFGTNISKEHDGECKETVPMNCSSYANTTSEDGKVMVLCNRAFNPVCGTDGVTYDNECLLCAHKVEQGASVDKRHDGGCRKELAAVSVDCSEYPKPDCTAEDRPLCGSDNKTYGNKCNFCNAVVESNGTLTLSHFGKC
# Chain of Bovine serum albumin (P02769 25-607, one chain of several): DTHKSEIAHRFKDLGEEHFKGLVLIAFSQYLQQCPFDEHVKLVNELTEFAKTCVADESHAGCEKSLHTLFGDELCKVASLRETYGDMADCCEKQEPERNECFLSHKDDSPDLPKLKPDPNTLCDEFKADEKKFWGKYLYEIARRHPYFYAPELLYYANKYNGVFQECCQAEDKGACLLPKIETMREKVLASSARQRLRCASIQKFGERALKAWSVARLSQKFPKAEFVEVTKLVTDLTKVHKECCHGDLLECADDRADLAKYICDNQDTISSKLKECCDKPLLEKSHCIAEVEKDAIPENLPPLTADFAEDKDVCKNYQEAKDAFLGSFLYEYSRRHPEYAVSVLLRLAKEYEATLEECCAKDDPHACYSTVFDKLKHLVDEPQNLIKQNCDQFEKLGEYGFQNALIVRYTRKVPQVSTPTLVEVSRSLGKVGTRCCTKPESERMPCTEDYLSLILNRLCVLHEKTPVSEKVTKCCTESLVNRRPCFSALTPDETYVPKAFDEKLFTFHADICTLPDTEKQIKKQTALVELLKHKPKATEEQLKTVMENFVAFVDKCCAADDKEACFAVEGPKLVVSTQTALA
Binder,binding result (Ovomucoid),binding result (Lysozyme (egg white) [2]),also measured
B1,no binding,–,–
B2,–,–,binding result (Lysozyme (egg white) [1]): binds; binding result (Bovine serum albumin): no binding
B3,–,binds,–
B4,no binding,–,–
B5,–,–,binding result (Lysozyme (egg white) [3]): binds
B6,–,binds,–
